We go through five sequences from the supplement of paper PMC5998384.

Data set [1] has as its system HeLa Kyoto. In words: melting temperature (median over replicates), in situ; higher = more thermally stable.
In data set [2] the test system is HeLa Kyoto. Briefly: thermal stability score vs G1/S (z-score of summed log2 fold changes over temperatures); higher = more thermally stable than in G1/S.
The subject of data set [3] is HeLa Kyoto. Briefly: solubility change mitosis vs G1/S (difference of NP-40 vs SDS log2 ratios) (log2 ratio difference); higher = more soluble in mitosis.
For data set [4], the system named is HeLa Kyoto. In words: solubility in G1/S (NP-40 vs SDS abundance) (log2 ratio); higher = more soluble. The settings on record: cell cycle stage: G1/S.
[5] abbreviates: cell cycle stage: early G1 (4.5 h after nocodazole release).
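Throughout, for melting temperature (median over replicates), in situ: HeLa Kyoto cells synchronized by double thymidine or nocodazole block, proteins quantified by TMT10plex mass spectrometry, three independent biological replicates.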
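Throughout, for solubility change mitosis vs G1/S (difference of NP-40 vs SDS log2 ratios): synchronized HeLa Kyoto cells (double thymidine block for G1/S, nocodazole release for mitosis), protein amounts in NP-40 versus SDS lysates quantified by mass spectrometry, three biological replicates.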
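Throughout, for solubility in G1/S (NP-40 vs SDS abundance): HeLa Kyoto cells arrested at G1/S by double thymidine block, proteins quantified by TMT10plex mass spectrometry in mild NP-40 versus SDS extracts, three biological replicates.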
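Throughout, for thermal stability score vs G1/S (z-score of summed log2 fold changes over temperatures): synchronized HeLa Kyoto cells, proteins quantified by TMT10plex mass spectrometry, three biological replicates, mitosis taken 0.5 h after nocodazole release, G1/S directly after double thymidine block.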

With “MAGAAPRVRYLAGFCCPLGGLAAGKPRVLCHEAEVFLSTGSELVYVYDQEGGLLTAAFRFPDQVWHLELLAPRRLLYALCARRGLYCLSLDHPGRSRSTSQDDRDSEDGDQPSPVIPVDPDACILPDAALCAFTLLDSVLVTLVQGPARWKMQLFEQPCPGEDPRPGGQIGEVELSSYTPPAGVPGKPAAPHFLPVLCSVSPSGSRVPHDLLGGSGGFTLEDALFGLLFGADATLLQSPVVLCGLPDGQLCCVILKALVTSRSAPGDPNALVKILHHLEEPVIFIGALKTEPQAAEAAENFLPDEDVHCDCLVAFGHHGRMLAIKASWDESGKLVPELREYCLPGPVLCAACGGGGRVYHSTPSDLCVVDLSRGSTPLGPEQPEEGPGGLPPMLCPASLNICSVVSLSASPRTHEGGTKLLALSAKGRLMTCSLDLDSEMPGPARMTTESAGQKIKELLSGIGNISERVSFLKKAVDQRNKALTSLNEAMNVSCALLSSGTGPRPISCTTSTTWSRLQTQDVLMATCVLENSSSFSLDQGWTLCIQVLTSSCALDLDSACSAITYTIPVDQLGPGARREVTLPLGPGENGGLDLPVTVSCTLFYSLREVVGGALAPSDSEDPFLDECPSDVLPEQEGVCLPLSRHTVDMLQCLRFPGLAPPHTRAPSPLGPTRDPVATFLETCREPGSQPAGPASLRAEYLPPSVASIKVSAELLRAALKDGHSGVPLCCATLQWLLAENAAVDVVRARALSSIQGVAPDGANVHLIVREVAMTDLCPAGPIQAVEIQVESSSLADICRAHHAVVGRMQTMVTEQATQGSSAPDLRVQYLRQIHANHETLLREVQTLRDRLCTEDEASSCATAQRLLQVYRQLRHPSLILL [FAAP100]”, the melting temperature came out at 54 °C in the data set with HeLa Kyoto [1] (cell cycle stage: G1/S) and 52.6 °C in the data set on HeLa Kyoto [1] (cell cycle stage: mitosis). Moreover, the thermal stability score with HeLa Kyoto [2] (setting [5]) was -0.383; in the data set with HeLa Kyoto [2] (cell cycle stage: mitosis) it was 0.0611. In the data set on HeLa Kyoto [3], the “solubility change mitosis (log2)” value is -0.00216. For the same sequence, the “solubility in G1/S (log2)” value in the data set with HeLa Kyoto [4] was found to be 0.0643.

For the sequence “MAGASELGTGPGAAGGDGDDSLYPIAVLIDELRNEDVQLRLNSIKKLSTIALALGVERTRSELLPFLTDTIYDEDEVLLALAEQLGNFTGLVGGPDFAHCLLPPLENLATVEETVVRDKAVESLRQISQEHTPVALEAYFVPLVKRLASGDWFTSRTSACGLFSVCYPRASNAVKAEIRQQFRSLCSDDTPMVRRAAASKLGEFAKVLELDSVKSEIVPLFTSLASDEQDSVRLLAVEACVSIAQLLSQDDLETLVMPTLRQAAEDKSWRVRYMVADRFSELQKAMGPKITLNDLIPAFQNLLKDCEAEVRAAAAHKVKELGENLPIEDRETIIMNQILPYIKELVSDTNQHVKSALASVIMGLSTILGKENTIEHLLPLFLAQLKDECPDVRLNIISNLDCVNEVIGIRQLSQSLLPAIVELAEDAKWRVRLAIIEYMPLLAGQLGVEFFDEKLNSLCMAWLVDHVYAIREAATNNLMKLVQKFGTEWAQNTIVPKVLVMANDPNYLHRMTTLFCINALSEACGQEITTKQMLPIVLKMAGDQVANVRFNVAKSLQKIGPILDTNALQGEVKPVLQKLGQDEDMDVKYFAQEAISVLALA [PPP2R1B]”, the melting temperature amounted to 49.2 °C in the data set with HeLa Kyoto [1] (cell cycle stage: G1/S) and 49.6 °C in the data set with HeLa Kyoto [1] (cell cycle stage: mitosis). The figures for the thermal stability score with HeLa Kyoto [2] (setting [5]) and in the data set with HeLa Kyoto [2] (cell cycle stage: mitosis) were 1.92 and 2.96, respectively. Besides, in the data set with HeLa Kyoto [3], the “solubility change mitosis (log2)” value is -0.0603. In addition, the “solubility in G1/S (log2)” value with HeLa Kyoto [4] was 0.391.

Take “MAGGGGDLSTRRLNECISPVANEMNHLPAHSHDLQRMFTEDQGVDDRLLYDIVFKHFKRNKVEISNAIKKTFPFLEGLRDRDLITNKMFEDSQDSCRNLVPVQRVVYNVLSELEKTFNLPVLEALFSDVNMQEYPDLIHIYKGFENVIHDKLPLQESEEEEREERSGLQLSLEQGTGENSFRSLTWPPSGSPSHAGTTPPENGLSEHPCETEQINAKRKDTTSDKDDSLGSQQTNEQCAQKAEPTESCEQIAVQVNNGDAGREMPCPLPCDEESPEAELHNHGIQINSCSVRLVDIKKEKPFSNSKVECQAQARTHHNQASDIIVISSEDSEGSTDVDEPLEVFISAPRSEPVINNDNPLESNDEKEGQEATCSRPQIVPEPMDFRKLSTFRESFKKRVIGQDHDFSESSEEEAPAEASSGALRSKHGEKAPMTSRSTSTWRIPSRKRRFSSSDFSDLSNGEELQETCSSSLRRGSGSQPQEPENKKCSCVMCFPKGVPRSQEARTESSQASDMMDTMDVENNSTLEKHSGKRRKKRRHRSKVNGLQRGRKKDRPRKHLTLNNKVQKKRWQQRGRKANTRPLKRRRKRGPRIPKDENINFKQSELPVTCGEVKGTLYKERFKQGTSKKCIQSEDKKWFTPREFEIEGDRGASKNWKLSIRCGGYTLKVLMENKFLPEPPSTRKKRILESHNNTLVDPCEEHKKKNPDASVKFSEFLKKCSETWKTIFAKEKGKFEDMAKADKAHYEREMKTYIPPKGEKKKKFKDPNAPKRPPLAFFLFCSEYRPKIKGEHPGLSIDDVVKKLAGMWNNTAAADKQFYEKKAAKLKEKYKKDIAAYRAKGKPNSAKKRVVKAEKSKKKKEEEEDEEDEQEEENEEDDDK [SP100]”: the melting temperature in the data set with HeLa Kyoto [1] (cell cycle stage: G1/S) and in the data set on HeLa Kyoto [1] (cell cycle stage: mitosis) was 51.9 °C in each case. In addition, the thermal stability score is -2.83 with HeLa Kyoto [2] (setting [5]) and -2.43 with HeLa Kyoto [2] (cell cycle stage: mitosis). In addition, the “solubility change mitosis (log2)” value with HeLa Kyoto [3] worked out at 0.113. Besides, in the data set with HeLa Kyoto [4], the “solubility in G1/S (log2)” value came to 0.0834.

Regarding “MAGLSDLELRRELQALGFQPGPITDTTRDVYRNKLRRLRGEARLRDEERLREEARPRGEERLREEARLREDAPLRARPAAASPRAEPWLSQPASGSAYATPGAYGDIRPSAASWVGSRGLAYPARPAQLRRRASVRGSSEEDEDARTPDRATQGPGLAARRWWAASPAPARLPSSLLGPDPRPGLRATRAGPAGAARARPEVGRRLERWLSRLLLWASLGLLLVFLGILWVKMGKPSAPQEAEDNMKLLPVDCERKTDEFCQAKQKAALLELLHELYNFLAIQAGNFECGNPENLKSKCIPVMEAQEYIANVTSSSSAKFEAALTWILSSNKDVGIWLKGEDQSELVTTVDKVVCLESAHPRMGVGCRLSRALLTAVTNVLIFFWCLAFLWGLLILLKYRWRKLEEEEQAMYEMVKKIIDVVQDHYVDWEQDMERYPYVGILHVRDSLIPPQSRRRMKRVWDRAVEFLASNESRIQTESHRVAGEDMLVWRWTKPSSFSDSER [LEMD2]”, the melting temperature with HeLa Kyoto [1] (cell cycle stage: G1/S) amounted to 52.5 °C; with HeLa Kyoto [1] (cell cycle stage: mitosis), 51.1 °C. Besides, the thermal stability score in the data set with HeLa Kyoto [2] (setting [5]) was -1.63; in the data set with HeLa Kyoto [2] (cell cycle stage: mitosis), -1.98. The “solubility change mitosis (log2)” value in the data set with HeLa Kyoto [3] came out at 0.776. For the same sequence, the “solubility in G1/S (log2)” value in the data set with HeLa Kyoto [4] is -0.759.

As to “MAGMVDFQDEEQVKSFLENMEVECNYHCYHEKDPDGCYRLVDYLEGIRKNFDEAAKVLKFNCEENQHSDSCYKLGAYYVTGKGGLTQDLKAAARCFLMACEKPGKKSIAACHNVGLLAHDGQVNEDGQPDLGKARDYYTRACDGGYTSSCFNLSAMFLQGAPGFPKDMDLACKYSMKACDLGHIWACANASRMYKLGDGVDKDEAKAEVLKNRAQQLHKEQQKGVQPLTFG [COA7]”, the melting temperature in the data set with HeLa Kyoto [1] (cell cycle stage: G1/S) is 52.9 °C; with HeLa Kyoto [1] (cell cycle stage: mitosis) it was 52.7 °C. For the same sequence, the thermal stability score is -1.59 in the data set on HeLa Kyoto [2] (setting [5]) and -1.97 with HeLa Kyoto [2] (cell cycle stage: mitosis). Further, the “solubility change mitosis (log2)” value in the data set with HeLa Kyoto [3] is 0.0461. Further, the “solubility in G1/S (log2)” value in the data set with HeLa Kyoto [4] was 0.586.
